Target: SERCA (UniProt P04191)
Assay: time-resolved FRET in reconstituted lipid vesicles
Conditions: reference: unphosphorylated labeled PLB; sites S16

other: mole fraction of PLB bound to SERCA (xDA): weaker; reference 0.99 ± 0.01
Substance: phospholamban (PLB) (from UniProt P61015) PKA-phosphorylated, HPLC-purified labeled PLB (pPLB)

Source: article PMC4054823
